Experimental data reported in patent US20240391954A1, “MC4R AGONIST PEPTIDES” (The Regents of the University of Michigan, priority 2021, published 2024).
Positions of bridges follow the written chain, without caps; N, C: chain ends. Non-standard residues stand in square brackets, D forms with d. NMeW = CN[C@@H](Cc1c[nH]c2ccccc12)C(=O)O; Phe(4-Br) = N[C@@H](Cc1ccc(Br)cc1)C(=O)O; dPhe(4-Br) = N[C@H](Cc1ccc(Br)cc1)C(=O)O; dPhe(4-I) = N[C@H](Cc1ccc(I)cc1)C(=O)O; d(αMeF) = C[C@@](N)(Cc1ccccc1)C(=O)O; NMeH = CN[C@@H](Cc1c[nH]cn1)C(=O)O; d(hPhe) = N[C@H](CCc1ccccc1)C(=O)O; NMeR = CN[C@@H](CCCNC(=N)N)C(=O)O; Cit = NC(=O)NCCC[C@H](N)C(=O)O; NMeA = CN[C@@H](C)C(=O)O; Nle = CCCC[C@H](N)C(=O)O; Aib = CC(C)(N)C(=O)O

B1: CTX-1281 (peptide)
peptide: Ac-RC[dA]R[dF][Cit][dW]C-NH2
modifications: disulfide 2-8
B2: CTX-1267 (peptide)
peptide: Ac-RCAR[dF]RWC-NH2
modifications: disulfide 2-8
SMILES: CC(=O)N[C@@H](CCCNC(=N)N)C(=O)N[C@H]1CSSC[C@@H](C(N)=O)NC(=O)[C@H](Cc2c[nH]c3ccccc23)NC(=O)[C@H](CCCNC(=N)N)NC(=O)[C@@H](Cc2ccccc2)NC(=O)[C@H](CCCNC(=N)N)NC(=O)[C@H](C)NC1=O
B3: CTX-1284 (peptide)
peptide: Ac-RC[dA]R[dF][NMeR][dW]C-NH2
modifications: disulfide 2-8
SMILES: CC(=O)N[C@@H](CCCNC(=N)N)C(=O)N[C@H]1CSSC[C@@H](C(N)=O)NC(=O)[C@@H](Cc2c[nH]c3ccccc23)NC(=O)[C@H](CCCNC(=N)N)N(C)C(=O)[C@@H](Cc2ccccc2)NC(=O)[C@H](CCCNC(=N)N)NC(=O)[C@@H](C)NC1=O
B4: CTX-1287 (peptide)
peptide: Ac-RCA[Cit][dF]RWC-NH2
modifications: disulfide 2-8
B5: CTX-1278 (peptide)
peptide: Ac-RC[dA]R[d(αMeF)]RWC-NH2
modifications: disulfide 2-8
SMILES: CC(=O)N[C@@H](CCCNC(=N)N)C(=O)N[C@H]1CSSC[C@@H](C(N)=O)NC(=O)[C@H](Cc2c[nH]c3ccccc23)NC(=O)[C@H](CCCNC(=N)N)NC(=O)[C@@](C)(Cc2ccccc2)NC(=O)[C@H](CCCNC(=N)N)NC(=O)[C@@H](C)NC1=O
B6: CTX-1265 (peptide)
peptide: Ac-RC[dA]R[dF]R[dF]C-NH2
modifications: disulfide 2-8
SMILES: CC(=O)N[C@@H](CCCNC(=N)N)C(=O)N[C@H]1CSSC[C@@H](C(N)=O)NC(=O)[C@@H](Cc2ccccc2)NC(=O)[C@H](CCCNC(=N)N)NC(=O)[C@@H](Cc2ccccc2)NC(=O)[C@H](CCCNC(=N)N)NC(=O)[C@@H](C)NC1=O
B7: CTX-1269 (peptide)
peptide: Ac-RC[NMeA]R[dF]R[dW]C-NH2
modifications: disulfide 2-8
SMILES: CC(=O)N[C@@H](CCCNC(=N)N)C(=O)N[C@H]1CSSC[C@@H](C(N)=O)NC(=O)[C@@H](Cc2c[nH]c3ccccc23)NC(=O)[C@H](CCCNC(=N)N)NC(=O)[C@@H](Cc2ccccc2)NC(=O)[C@H](CCCNC(=N)N)NC(=O)[C@H](C)N(C)C1=O
B8: CTX-1270 (peptide)
peptide: Ac-RC[Aib]R[dF][Cit]WC-NH2
modifications: disulfide 2-8
B9: CTX-1286 (peptide)
peptide: Ac-RC[dA][Cit][dF]R[dW]C-NH2
modifications: disulfide 2-8
B10: CTX-1203 (peptide)
peptide: {CH2CO}-[dA][NMeH][dF]R[NMeW]C-NH2
modifications: thioether N-6
SMILES: C[C@H]1NC(=O)CSC[C@@H](C(N)=O)NC(=O)[C@H](Cc2c[nH]c3ccccc23)N(C)C(=O)[C@H](CCCNC(=N)N)NC(=O)[C@@H](Cc2ccccc2)NC(=O)[C@H](Cc2c[nH]cn2)N(C)C1=O
B11: CTX-1612 (peptide)
peptide: Ac-R[Nle]CR[dPhe(4-Br)]RWC-NH2
modifications: disulfide 3-8
SMILES: CCCC[C@H](NC(=O)[C@H](CCCNC(=N)N)NC(C)=O)C(=O)N[C@H]1CSSC[C@@H](C(N)=O)NC(=O)[C@H](Cc2c[nH]c3ccccc23)NC(=O)[C@H](CCCNC(=N)N)NC(=O)[C@@H](Cc2ccc(Br)cc2)NC(=O)[C@H](CCCNC(=N)N)NC1=O
B12: CTX-1214 (peptide)
peptide: Ac-RC[dA]R[dPhe(4-Br)]R[dW]C-NH2
modifications: disulfide 2-8
B13: CTX-1232 (peptide)
peptide: Ac-R[Nle]CR[dPhe(4-Br)]R[dW]C-NH2
modifications: disulfide 3-8
SMILES: CCCC[C@H](NC(=O)[C@H](CCCNC(=N)N)NC(C)=O)C(=O)N[C@H]1CSSC[C@@H](C(N)=O)NC(=O)[C@@H](Cc2c[nH]c3ccccc23)NC(=O)[C@H](CCCNC(=N)N)NC(=O)[C@@H](Cc2ccc(Br)cc2)NC(=O)[C@H](CCCNC(=N)N)NC1=O
B14: CTX-1212 (peptide)
peptide: Ac-RC[dA]R[Phe(4-Br)]RWC-NH2
modifications: disulfide 2-8
B15: CTX-1216 (peptide)
peptide: Ac-RC[dA]R[dPhe(4-Br)]R[dW]CKPV-NH2
modifications: disulfide 2-8
SMILES: CC(=O)N[C@@H](CCCNC(=N)N)C(=O)N[C@H]1CSSC[C@@H](C(=O)N[C@@H](CCCCN)C(=O)N2CCC[C@H]2C(=O)N[C@H](C(N)=O)C(C)C)NC(=O)[C@@H](Cc2c[nH]c3ccccc23)NC(=O)[C@H](CCCNC(=N)N)NC(=O)[C@@H](Cc2ccc(Br)cc2)NC(=O)[C@H](CCCNC(=N)N)NC(=O)[C@@H](C)NC1=O
B16: CTX-1234 (peptide)
peptide: Ac-[Nle]CH[dPhe(4-I)]R[dW]C-NH2
modifications: disulfide 2-7
SMILES: CCCC[C@H](NC(C)=O)C(=O)N[C@H]1CSSC[C@@H](C(N)=O)NC(=O)[C@@H](Cc2c[nH]c3ccccc23)NC(=O)[C@H](CCCNC(=N)N)NC(=O)[C@@H](Cc2ccc(I)cc2)NC(=O)[C@H](Cc2c[nH]cn2)NC1=O
B17: CTX-1613 (peptide)
peptide: Ac-R[Nle]CR[dPhe(4-Br)]R[dW]C-NH2
modifications: disulfide 3-8
SMILES: CCCC[C@H](NC(=O)[C@H](CCCNC(=N)N)NC(C)=O)C(=O)N[C@H]1CSSC[C@@H](C(N)=O)NC(=O)[C@@H](Cc2c[nH]c3ccccc23)NC(=O)[C@H](CCCNC(=N)N)NC(=O)[C@@H](Cc2ccc(Br)cc2)NC(=O)[C@H](CCCNC(=N)N)NC1=O
B18: CTX-1277 (peptide)
peptide: Ac-RC[dA]R[d(hPhe)]R[dW]C-NH2
modifications: disulfide 2-8
B19: CTX-1239 (peptide)
peptide: Ac-RC[dA]R[d(hPhe)]R[dW]C-NH2
modifications: disulfide 2-8
SMILES: CC(=O)N[C@@H](CCCNC(=N)N)C(=O)N[C@H]1CSSC[C@@H](C(N)=O)NC(=O)[C@@H](Cc2c[nH]c3ccccc23)NC(=O)[C@H](CCCNC(=N)N)NC(=O)[C@@H](CCc2ccccc2)NC(=O)[C@H](CCCNC(=N)N)NC(=O)[C@@H](C)NC1=O
B20: CTX-1230 (peptide)
peptide: Ac-R[Nle]CR[dPhe(4-Br)]RWC-NH2
modifications: disulfide 3-8
SMILES: CCCC[C@H](NC(=O)[C@H](CCCNC(=N)N)NC(C)=O)C(=O)N[C@H]1CSSC[C@@H](C(N)=O)NC(=O)[C@H](Cc2c[nH]c3ccccc23)NC(=O)[C@H](CCCNC(=N)N)NC(=O)[C@@H](Cc2ccc(Br)cc2)NC(=O)[C@H](CCCNC(=N)N)NC1=O
B21: CTX-1229 (peptide)
peptide: Ac-R[Nle]CH[dPhe(4-Br)]RWC-NH2
modifications: disulfide 3-8
SMILES: CCCC[C@H](NC(=O)[C@H](CCCNC(=N)N)NC(C)=O)C(=O)N[C@H]1CSSC[C@@H](C(N)=O)NC(=O)[C@H](Cc2c[nH]c3ccccc23)NC(=O)[C@H](CCCNC(=N)N)NC(=O)[C@@H](Cc2ccc(Br)cc2)NC(=O)[C@H](Cc2c[nH]cn2)NC1=O

Target: T1, human MC3R (human, UniProt P41968 1-323)
Assay: cell-based or functional assay

T1 sequence (P41968 whole entry): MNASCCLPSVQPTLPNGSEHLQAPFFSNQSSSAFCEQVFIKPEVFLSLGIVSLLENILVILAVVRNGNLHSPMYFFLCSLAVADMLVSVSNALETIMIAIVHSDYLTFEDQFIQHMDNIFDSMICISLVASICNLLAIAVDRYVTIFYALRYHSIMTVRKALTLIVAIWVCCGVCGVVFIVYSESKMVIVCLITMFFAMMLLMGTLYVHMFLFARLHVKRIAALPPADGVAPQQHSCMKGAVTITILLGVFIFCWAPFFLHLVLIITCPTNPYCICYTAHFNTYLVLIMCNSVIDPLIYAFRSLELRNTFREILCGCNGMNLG

% max activation	cAMP EC50	Binder
44%	28 nM	B1
40%	12 nM	B2
45%	1040 nM	B3
43%	50 nM	B4
86%	418 nM	B5
	29.9 nM	B6
39%	121 nM	B7
14%	52 nM	B8
24%	568 nM	B9
107%	2610 nM	B10

Target: T2, human MC4R receptor (human, UniProt P32245 1-332)
Assay: cell-based or functional assay

T2 sequence (P32245 whole entry): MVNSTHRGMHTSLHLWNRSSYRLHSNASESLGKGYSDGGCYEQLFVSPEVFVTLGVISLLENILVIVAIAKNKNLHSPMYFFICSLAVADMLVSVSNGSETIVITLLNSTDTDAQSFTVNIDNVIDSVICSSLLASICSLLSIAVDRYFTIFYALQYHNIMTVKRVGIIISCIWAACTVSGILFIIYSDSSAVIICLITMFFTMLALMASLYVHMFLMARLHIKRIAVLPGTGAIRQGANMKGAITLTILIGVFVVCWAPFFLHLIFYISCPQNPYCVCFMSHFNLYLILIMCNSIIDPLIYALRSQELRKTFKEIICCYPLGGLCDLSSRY

% max activation	cAMP EC50	Binder
92%	97 nM	B1
96%	3 nM	B2
91%	128 nM	B3
94%	0.77 nM	B4
105%	36 nM	B5
	703 nM	B6
92%	13 nM	B7
98%	27 nM	B8
91%	262 nM	B9
109%	16 nM	B10

Target: T1, human MC3R
Assay: cell-based or functional assay
Remark: another data set of the same source

cAMP EC50	% max activation	Binder
4.5 nM		B11
4.1 nM	15%	B12
6 nM		B13
28 nM	0.1%	B14
3.5 nM	11%	B15
3.4 nM	18%	B16
4 nM		B17
45 nM		B18
74 nM		B19
3.9 nM		B20
3.5 nM	16%	B21

Target: T2, human MC4R receptor
Assay: cell-based or functional assay
Remark: another data set of the same source

cAMP EC50	% max activation	Binder
2 nM		B11
2.6 nM	74%	B12
2.4 nM		B13
393 nM	55%	B14
1.9 nM		B17
429 nM		B18
249 nM		B19
1.4 nM		B20
18 nM	31%	B21

Target: T2, human MC4R receptor
Assay: cell-based or functional assay
Remark: another data set of the same source

MC4R selectivity vs MC1R	MC4R selectivity vs MC3R	Binder
0.44	0.29	B1
0.5	4.07	B2
0.15	8.11	B3
281	66	B4
1.13	12	B5
0.02		B6
2.56	9.31	B7
2.49	1.88	B8
3.4	2.16	B9
2.32	161	B10

Target: T2, human MC4R receptor
Assay: cell-based or functional assay
Remark: another data set of the same source

MC4R selectivity vs MC1R	MC4R selectivity vs MC3R	Binder
0.07	0.07	B14
